Measured values as given in patent US7999069B2, “EphB receptor-binding peptides” (Sanford-Burnham Medical Research Institute, priority 2005, dated 2011).

Legend:
EphB receptors = experiment: Peptide pull-down of endogenous EphB receptors from lysates; type: binding; settings: peptide on streptavidin beads; mouse brain or cultured cell lysates
Description: The ability of the peptides to bind in a stable manner, which is important for both targeting and competitive inhibition, was tested in pull-down experiments. For peptide pull-down experiments, cells in 60 cm plates at 70% confluency or adult mouse brain tissue were solubilized in pull-down buffer (50 mM HEPES pH 7.5, 150 mM NaCl, 10% glycerol, 1% Triton-X100, 5 mM KCl and 1 mM EDTA). Three μg of biotinylated peptide were incubated for 45-90 min with 5 μl streptavidin agarose beads (Sigma), unbound peptide was washed away, and the beads were incubated with the cell lysates for 45-90 min. Proteins bound to the beads were separated by SDS-polyacrylamide gel electrophoresis and probed by immunoblotting with EphB1, EphB2, or EphB4 antibodies. The EphB1 antibody (Santa Cruz) was detected with a secondary anti-goat IgG peroxidase-conjugated antibody (BioRad Laboratories). The EphB2 and EphB4 antibodies were affinity-purified polyclonal antibodies to GST fusion proteins containing approximately 100 amino acids from the carboxy-terminal tails of the EphB2 or EphB4 receptors (Noren, N. K. et al. 2004 PNAS USA 101:5583-5588; Holash, J. A. & Pasquale, E. B. 1995 Devel Biol 172:683-693) and were detected with a secondary anti-rabbit IgG peroxidase-conjugated antibody (Amersham Biosciences). […]

COS cells = settings: 400 μM peptide; […] ephrin-B1 Fc
Description: Upon treatment with 1.5 μg/ml ephrin-B1 Fc, COS cells retract at the periphery, leaving behind spike-like protrusions. […] COS cells were plated onto glass coverslips and sixteen hours later were starved for three hours in DME with 0.5% fetal calf serum. The cells were then incubated for 20 min with 400 μM SNEW or control peptide in PBS, or an equal volume of PBS as a control, and then either left untreated or stimulated for 10 min with 1.5 μg/ml ephrinB1-Fc (R&D Systems, Inc.). […] Control peptide: RTVA.

EphB4 [1] = molecular target: T1, EphB4 (Homo sapiens, UniProt P54760); experiment: Peptide competition of phage binding to EphB4 ectodomain; settings: concentration-dependent
T1 construct: panned on the ectodomains of EphB1, EphB2, or EphB4 fused to human Fc
T1 sequence (P54760 16-539 limits assumed): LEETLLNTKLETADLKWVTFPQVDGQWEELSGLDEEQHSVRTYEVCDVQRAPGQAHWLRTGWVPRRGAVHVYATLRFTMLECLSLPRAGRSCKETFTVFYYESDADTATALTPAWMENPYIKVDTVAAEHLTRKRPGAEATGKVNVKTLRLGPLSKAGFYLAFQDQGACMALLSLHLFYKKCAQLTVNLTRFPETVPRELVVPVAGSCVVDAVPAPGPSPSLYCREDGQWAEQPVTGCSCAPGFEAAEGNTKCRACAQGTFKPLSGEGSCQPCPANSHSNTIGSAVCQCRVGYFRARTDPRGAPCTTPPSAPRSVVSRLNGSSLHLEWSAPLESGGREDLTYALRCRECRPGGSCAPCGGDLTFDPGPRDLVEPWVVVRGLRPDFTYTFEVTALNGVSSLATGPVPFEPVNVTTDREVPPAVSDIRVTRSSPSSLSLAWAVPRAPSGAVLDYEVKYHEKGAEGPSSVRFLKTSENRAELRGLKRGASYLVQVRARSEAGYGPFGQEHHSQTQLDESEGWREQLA
Description: To measure peptide competition of phage binding to EphB receptors, Ni-NTA wells coated with Eph ectodomain Fc were incubated for 30 min at room temperature with various peptide concentrations in binding buffer (100 μl/well). Concentrated stocks of phage clones diluted between 1:500 and 1:10,000 in binding buffer were then added to the wells for a 1 hr at room temperature. Wells were washed and bound phage were detected using the anti-M13 antibody. A biotinylated control peptide with sequence unrelated to the sequences of the Eph-binding peptides ([…], SEQ ID NO: 40) was used as a negative control in some of the experiments, as indicated in the figure legends.
[…]. The SNEW peptide at 25 μM inhibited EphB2 binding of most phage clones isolated by panning on EphB2 (FIGS. 2E and G). The only exceptions were the IHWP, DHRWV and WHWT clones. However, binding of these clones was inhibited by 50 μM SNEW peptide, particularly when the phage concentration was halved. […] Bound phage were detected using anti-M13 phage antibody coupled to HRP and phage binding in the presence of peptide was normalized to phage binding in the absence of peptide. Error bars indicate standard deviation from duplicate measurements, and were calculated taking into account propagation of errors.

EphB4 [2] = molecular target: T2, EphB4 (Homo sapiens, UniProt P54760); experiment: Peptide pull-down of EphB4 from MCF7 or transfected 293T cells; type: binding
T2 construct: MCF-7 human breast cancer cells, which endogenously express EphB4; endogenous in cells; host or cells: MCF7
T2 sequence (P54760 16-987): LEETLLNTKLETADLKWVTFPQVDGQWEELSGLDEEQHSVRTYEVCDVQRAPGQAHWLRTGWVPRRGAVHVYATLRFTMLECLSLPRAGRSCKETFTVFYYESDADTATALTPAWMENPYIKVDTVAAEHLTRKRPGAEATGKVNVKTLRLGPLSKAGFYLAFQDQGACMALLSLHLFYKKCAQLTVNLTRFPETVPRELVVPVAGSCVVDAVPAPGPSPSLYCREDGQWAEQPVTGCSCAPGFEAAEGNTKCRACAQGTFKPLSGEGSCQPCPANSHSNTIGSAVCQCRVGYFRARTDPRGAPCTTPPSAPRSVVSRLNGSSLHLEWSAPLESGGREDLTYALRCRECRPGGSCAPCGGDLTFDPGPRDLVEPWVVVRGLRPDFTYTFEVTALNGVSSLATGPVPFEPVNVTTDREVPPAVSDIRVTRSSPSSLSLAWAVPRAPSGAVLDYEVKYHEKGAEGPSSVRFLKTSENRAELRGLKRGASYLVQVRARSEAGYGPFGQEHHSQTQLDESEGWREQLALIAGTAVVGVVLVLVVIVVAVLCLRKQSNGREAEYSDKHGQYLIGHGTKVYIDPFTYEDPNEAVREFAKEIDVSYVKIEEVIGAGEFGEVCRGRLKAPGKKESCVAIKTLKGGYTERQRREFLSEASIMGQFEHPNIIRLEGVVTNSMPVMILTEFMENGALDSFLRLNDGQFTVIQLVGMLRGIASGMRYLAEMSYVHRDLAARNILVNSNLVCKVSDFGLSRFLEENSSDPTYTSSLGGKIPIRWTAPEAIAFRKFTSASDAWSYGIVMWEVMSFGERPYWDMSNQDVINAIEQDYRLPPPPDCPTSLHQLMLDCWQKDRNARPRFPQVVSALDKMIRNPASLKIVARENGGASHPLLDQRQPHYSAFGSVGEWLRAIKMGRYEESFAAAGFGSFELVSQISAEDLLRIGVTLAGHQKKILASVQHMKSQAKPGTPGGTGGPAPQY
Description: The ability of the peptides to bind in a stable manner, which is important for both targeting and competitive inhibition, was tested in pull-down experiments. For peptide pull-down experiments, cells in 60 cm plates at 70% confluency or adult mouse brain tissue were solubilized in pull-down buffer (50 mM HEPES pH 7.5, 150 mM NaCl, 10% glycerol, 1% Triton-X100, 5 mM KCl and 1 mM EDTA). Three μg of biotinylated peptide were incubated for 45-90 min with 5 μl streptavidin agarose beads (Sigma), unbound peptide was washed away, and the beads were incubated with the cell lysates for 45-90 min. Proteins bound to the beads were separated by SDS-polyacrylamide gel electrophoresis and probed by immunoblotting with EphB1, EphB2, or EphB4 antibodies. The EphB1 antibody (Santa Cruz) was detected with a secondary anti-goat IgG peroxidase-conjugated antibody (BioRad Laboratories). The EphB2 and EphB4 antibodies were affinity-purified polyclonal antibodies to GST fusion proteins containing approximately 100 amino acids from the carboxy-terminal tails of the EphB2 or EphB4 receptors (Noren, N. K. et al. 2004 PNAS USA 101:5583-5588; Holash, J. A. & Pasquale, E. B. 1995 Devel Biol 172:683-693) and were detected with a secondary anti-rabbit IgG peroxidase-conjugated antibody (Amersham Biosciences).
Endogenous EphB receptors were isolated from lysates of mouse brain or cultured cells using the EWLS, SNEW, and TNYL peptides immobilized on streptavidin beads (FIGS. 5B, F, G and H). […] RTVA was used as a control peptide for the EphB4 pull downs. The NPVI peptide could isolate EphB4 from transfected cells but not endogenous EphB4 from MCF7 cells, which is present at lower levels (FIGS. 5B, F, G and H). […] EphB receptors were not detected bound to the beads coated with the other peptides.

EphB2 = molecular target: T3, EphB2 (Homo sapiens, UniProt P29323); settings: read-out: KD for monovalent EphB2-ephrin-B2 interaction; cited from earlier work
T3 sequence (P29323 19-1055): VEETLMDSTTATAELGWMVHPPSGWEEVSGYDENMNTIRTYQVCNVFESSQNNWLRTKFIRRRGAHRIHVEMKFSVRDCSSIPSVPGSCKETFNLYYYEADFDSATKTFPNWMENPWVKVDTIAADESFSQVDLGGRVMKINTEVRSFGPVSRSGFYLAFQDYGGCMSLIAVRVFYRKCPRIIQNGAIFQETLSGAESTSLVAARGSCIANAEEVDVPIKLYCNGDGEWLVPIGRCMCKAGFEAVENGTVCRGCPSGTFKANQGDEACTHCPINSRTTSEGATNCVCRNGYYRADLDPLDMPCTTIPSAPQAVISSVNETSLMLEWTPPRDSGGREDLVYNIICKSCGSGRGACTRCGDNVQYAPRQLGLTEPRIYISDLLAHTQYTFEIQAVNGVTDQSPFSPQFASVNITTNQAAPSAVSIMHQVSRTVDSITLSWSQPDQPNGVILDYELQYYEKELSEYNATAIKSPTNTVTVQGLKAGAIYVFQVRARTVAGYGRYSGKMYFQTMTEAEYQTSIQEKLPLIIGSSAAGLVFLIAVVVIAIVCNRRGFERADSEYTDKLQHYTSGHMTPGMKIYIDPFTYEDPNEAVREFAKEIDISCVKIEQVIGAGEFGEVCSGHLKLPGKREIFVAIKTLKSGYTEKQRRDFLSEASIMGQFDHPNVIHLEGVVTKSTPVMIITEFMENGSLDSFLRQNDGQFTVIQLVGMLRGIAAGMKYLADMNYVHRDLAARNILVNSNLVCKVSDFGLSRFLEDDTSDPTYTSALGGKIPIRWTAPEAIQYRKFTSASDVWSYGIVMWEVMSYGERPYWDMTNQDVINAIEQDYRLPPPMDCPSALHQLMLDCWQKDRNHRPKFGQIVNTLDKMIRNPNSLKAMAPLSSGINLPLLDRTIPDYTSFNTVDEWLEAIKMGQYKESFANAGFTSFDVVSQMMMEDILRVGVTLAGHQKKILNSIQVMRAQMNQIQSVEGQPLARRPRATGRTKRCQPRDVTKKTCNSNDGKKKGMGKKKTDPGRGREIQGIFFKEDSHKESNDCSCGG

EphA3 = molecular target: T4, EphA3 (Homo sapiens, UniProt P29320); settings: read-out: KD for monovalent EphA3-ephrin-A5 interaction; cited from earlier work
T4 sequence (P29320 21-983): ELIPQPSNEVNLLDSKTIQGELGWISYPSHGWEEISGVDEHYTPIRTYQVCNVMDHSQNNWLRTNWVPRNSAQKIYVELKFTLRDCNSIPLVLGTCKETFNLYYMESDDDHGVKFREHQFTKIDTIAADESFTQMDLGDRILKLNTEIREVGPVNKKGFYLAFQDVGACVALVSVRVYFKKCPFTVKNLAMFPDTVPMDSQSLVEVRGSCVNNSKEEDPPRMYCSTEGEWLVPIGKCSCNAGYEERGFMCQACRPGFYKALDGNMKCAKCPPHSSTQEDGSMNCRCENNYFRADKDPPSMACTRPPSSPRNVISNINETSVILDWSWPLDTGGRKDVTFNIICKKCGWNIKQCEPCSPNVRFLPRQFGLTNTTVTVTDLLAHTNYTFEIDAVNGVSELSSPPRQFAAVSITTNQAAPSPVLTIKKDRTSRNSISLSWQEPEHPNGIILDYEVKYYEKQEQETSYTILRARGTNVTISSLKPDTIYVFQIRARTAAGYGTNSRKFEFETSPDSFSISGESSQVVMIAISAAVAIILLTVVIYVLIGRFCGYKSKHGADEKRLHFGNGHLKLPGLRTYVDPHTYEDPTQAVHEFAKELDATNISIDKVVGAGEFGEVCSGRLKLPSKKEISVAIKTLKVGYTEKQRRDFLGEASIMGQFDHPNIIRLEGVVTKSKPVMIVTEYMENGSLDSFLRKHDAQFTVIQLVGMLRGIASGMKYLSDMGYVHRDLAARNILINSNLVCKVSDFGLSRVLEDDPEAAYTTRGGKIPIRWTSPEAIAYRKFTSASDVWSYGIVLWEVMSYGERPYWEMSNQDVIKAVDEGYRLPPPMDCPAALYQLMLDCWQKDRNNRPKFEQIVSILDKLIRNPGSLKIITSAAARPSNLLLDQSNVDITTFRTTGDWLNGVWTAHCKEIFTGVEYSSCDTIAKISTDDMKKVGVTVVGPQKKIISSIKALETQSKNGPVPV

For `CC[C@H](C)[C@H](NC(=O)[C@H](Cc1c[nH]c2ccccc12)NC(=O)[C@H](CCC(=O)O)NC(=O)[C@H](CC(N)=O)NC(=O)[C@@H](N)CO)C(=O)N[C@@H](CCC(N)=O)C(=O)N1CCC[C@H]1C(=O)N[C@@H](CCCNC(=N)N)C(=O)N[C@@H](CC(C)C)C(=O)N1CCC[C@H]1C(=O)N[C@@H](CCC(N)=O)C(=O)N[C@@H](Cc1c[nH]cn1)C(=O)O` [SEQ ID NO 18], the “Stable binding of EphB receptors in pull-down” value (EphB receptors) was “stably bind EphB receptors” and the “Inhibition of COS cell retraction phenotype” value (COS cells) was “inhibited the COS cell retraction phenotype”.

For “SEQ ID NO 20: 12-mer from EphB4 panning; printed DAL[image]D[image]L[image]FRPW (DALNDWLLFRPW)”, the “Inhibition of DALN phage binding to immobilized EphB4 ectodomain” value (EphB4 [1]) was “inhibited binding of DALN phage” and the “Pull-down of EphB4, peptides used alone or together” value (EphB4 [2]) was “ineffective”.

B1: ephrin-B2: ephrin ligand; monovalent interaction with EphB2, literature KD (protein, UniProt P52799 28-333, looked up)
Ephrin-B2: IVLEPIYWNSSNSKFLPGQGLVLYPQIGDKLDIICPKVDSKTVGQYEYYKVYMVDKDQADRCTIKKENTPLLNCAKPDQDIKFTIKFQEFSPNLWGLEFQKNKDYYIISTSNGSLEGLDNQEGGVCQTRAMKILMKVGQDASSAGSTRNKDPTRRPELEAGTNGRSSTTSPFVKPNPGSSTDGNSAGHSGNNILGSEVALFAGIASGCIIFIVIIITLVVLLLKYRRRHRKHSPQHTTTLSLSTLATPKRSGNNNGSEPSDIIIPLRTADSVFCPHYEKVSGDYGHPVYIVQEMPPQSPANIYYKV
In the case of B1, the Kd (EphB2) is given as 16 nM.

B2: ephrin-A5: ephrin ligand; monovalent interaction with EphA3, literature KD (protein, UniProt P52803 21-203, looked up)
Ephrin-A5: QDPGSKAVADRYAVYWNSSNPRFQRGDYHIDVCINDYLDVFCPHYEDSVPEDKTERYVLYMVNFDGYSACDHTSKGFKRWECNRPHSPNGPLKFSEKFQLFTPFSLGFEFRPGREYFYISSAIPDNGRRSCLKLKVFVRPTNSCMKTIGVHDRVFDVNDKVENSLEPADDTVHESAEPSRGEN
In the case of B2, the Kd (EphA3) is given as 10 to 12 nM.
